Measurements taken from publication PMC6997370, “Significant improvement in catalytic activity and enantioselectivity of a Phaseolus vulgaris epoxide hydrolase, PvEH3, towards ortho-cresyl glycidyl ether based on the semi-rational design” (Scientific Reports, 2020).
Numbering of substitutions follows the chain as printed. Names may count otherwise.

B1: PvEH3 (Phaseolus vulgaris) (protein)
chain: MEGIQHKEVEVNGIKMHVAEKGEGPVVLFLHGFPELWYSWRHQILALSSRGYRAVAPDLRGYGDTEAPASMSSYSCFDIVGDLVALIDLLGVDQVFLVAHDWGAIIGWYLCMFRPDRVKAYVCLSVPLLHRNPEIRTVDAMRAMYGDDYYICRFQKPGEMEAQMAEVGTGYVLKNILTTRKPGPPIFPKGEYGTGFNPDMTNSLPSWLSQHDLAYYVSKFQKTGFTGPLNYYRNMNPNWELTAPWSGAKIKVPVKFITGDLDMVYTSLNMKEYIHGGGFKEDVPNLEEVIVQKGVAHFNNQEAAEEINTHIYDFINKF
notes: pET-28a(+), N-terminal 6xHis tag, E. coli BL21(DE3), Ni-NTA purified; catalytic Asp101, Tyr150, Tyr232
B2: PvEH3 (Phaseolus vulgaris; E134K/T137P) (protein)
chain: B1 chain with E134K, T137P
notes: as for B1

Assays:
[1] = substrate: Cc1ccccc1OC[C@@H]1CO1; test: initial hydrolysis rate by HPLC, non-linear regression; type: biochemical, Phaseolus vulgaris; conditions: pH 7.0 phosphate 100 mM, 20 °C, 5% methanol, 1.5-15 mM substrate
Excerpt: (§1) initial hydrolysis rate by HPLC, non-linear regression on PvEH3

[2] = substrate: Cc1ccccc1OC[C@H]1CO1; test: as above; type: biochemical, Phaseolus vulgaris; conditions: pH 7.0 phosphate 100 mM, 20 °C, 5% methanol, 1.5-15 mM substrate
Excerpt: as §1

Row | Protein | Km [1] [mM] | Km [2] [mM] | kcat [2] [s⁻¹]
1 | B1 | 6.14 ± 0.22 | 9.84 ± 0.28 | 1.12 ± 0.05
2 | B2 | 3.29 ± 0.15 | 5.40 ± 0.21 | 1.37 ± 0.06
